Experimental data published in patent US20080108569A1, “Compositions and Methods for Treating Diseases Associated With Phlpp” (The Regents of the University of California, priority 2005, published 2008).

Columns and labels:
[1] = target: T1, Akt (Homo sapiens, UniProt P31749); assay: dephosphorylation assay with immunoprecipitated full-length HA-PHLPP2 and pure Akt; format: biochemical
T1 construct: 6His; made in house; host or cells: Akt1: baculovirus-infected Sf21 cells; HA-PHLPP2: transfected 293T cells, immunoprecipitated with HA antibody
Experimental: A GST-fusion protein of PHLPP-1α-PP2C was expressed in BL21 (DE3) and purified using glutathione-Sepharose. The GST-PP2C proteins were eluted from the beads in PBS containing 10 mM glutathione and 1 mM DTT, and dialyzed against 50 mM Tris (pH 7.4) and 1 mM DTT. His-tagged Akt was expressed and purified from baculovirus-infected Sf21 cells. Briefly, Sf21 cells were maintained in SF-900 II media (Invitrogen) and infected with baculovirus encoding His-Akt for 3 days. To obtain maximally phosphorylated Akt as substrate, the infected cells were treated with 10% FBS and calyculin A (100 nM) for 15 minutes prior to lysis. The infected cells were lysed in PBS containing 1% Triton X-100 and 10 mM imidazole, and His-Akt proteins were purified using Ni-NTA beads (Qiagen). The dephosphorylation reactions were carried out in a reaction buffer containing 50 mM Tris (pH 7.4), 1 mM DTT and 5 mM MnCl2 at 30° C. for 0-30 minutes.
GST-PP2C was expressed in BL21 bacterial cells; phosphatase assays were performed using the purified GST-PP2C construct conjugated to glutathione-sepharose and pure Akt as a substrate as described above. The activity of full length HA-PHLPP2 was assessed by expressing and immunoprecipitating PHLPP2 from 293T or H157 cell lysates. Cells were lysed in Buffer 2 (20 mM HEPES, pH 7.4, 1% Triton X-100, 1 mM DTT, 200 mM benzamidine, […] leupeptin, and 1 mM PMSF). […]

[2] = system: Akt; assay: Akt phosphorylation in cells overexpressing HA-PHLPP2 (Western blot); format: cell-based
Experimental: (§1) ZR-75-1 cell lines were maintained in RPMI 1640 (Cellgro), and all other cell lines were maintained in DMEM (Celigro); both media were supplemented with 10% FBS and 1% penicillin/streptomycin. Cells were maintained at 37° C. in 5% CO2. Transient transfections and siRNA experiments were performed as previously described (6), except for ZR-75-1 cells, which were transfected using FuGENE reagent (Roche). For immunoblotting, transfected cells were lysed in Buffer 1 (50 mM Na2HPO4, pH 7.5, 1 mM sodium pyrophosphate, 20 mM NaF, 2 mM EDTA, 2 mM EGTA, 1% SDS, 1 mM DTT, 200 mM benzamidine, […] leupeptin, and 1 mM PMSF) and sonicated for 5 seconds. Lysates containing equal protein were analyzed on SDS-PAGE gels, and individual blots were probed using each antibody. Densitometric analysis was performed with the NIH Image analysis software (version 1.63).

[3] = system: Akt; assay: in vitro kinase assay of Akt immunoprecipitated from 293T cells overexpressing PHLPP2; format: cell-based
Experimental: H157 cells transfected with vector or HA-PHLPP were lysed in buffer A. The detergent-solubilized cell lysates were incubated with an anti-Akt monoclonal antibody (5G3) and Ultra-link protein A/G beads (Pierce) at 4° C. overnight. Beads were washed three times in buffer A and twice in buffer B (25 mM Tris, pH 7.4, 10 mM MgCl2 and 1 mM DTT). In vitro kinase assays were carried out by incubating immunoprecipitated Akt in buffer containing 25 mM Tris, pH 7.4, 10 mM MgCl2 and 1 mM DTT, 200 μM ATP, 6 μM Crosstide (Upstate Biotechnology) and ^32Pγ-ATP at 30° C. for 30 minutes. Each reaction was performed in duplicate. The reactions were spotted onto P81 filter paper (Whatman), and radioactivity incorporated into the peptide was measured using a scintillation counter.
Akt was immunoprecipitated from cell lysates using Akt agarose (Upstate Biotechnologies) and kinase reactions were performed using an Akt kinase assay kit (Cell Signaling) as described previously in Example 5.

[4] = system: Bt-474 cells; assay: apoptosis assay, sub-2N DNA by flow cytometry; format: cell-based; conditions: from 2.0+0.2 without PHLPP2
Experimental: (§2) Apoptosis assays were performed as described previously (Brognard et al., 2001). Briefly, cells were transfected with different PHLPP expression constructs or siRNAs. In the case of gating for transfected cells, a GFP expression construct was co-transfected into the cells. Approximately 24 hours post-transfection, the cells were switched to low serum medium (DMEM plus 0.1% FBS) and allowed to grow for an additional 48 hours. For LY294002 (25 μM) treatment, the drug was added at the time when the cells were switched into the low serum medium. The cells were collected and stained with propidium iodide (25 μg/ml). Apoptotic cells were defined as sub-2N DNA containing cells. Quantification of apoptosis was obtained using flow cytometry analysis with a Becton Dickinson FACSort.
(§3) Apoptotic assays were performed as described above. To determine G1/S ratios, cells were co-transfected with GFP and HA-PHLPP2 and incubated under high serum (10% FBS) conditions for 48 hrs and cells were gated based on GFP expression as described above. For BrdU incorporation assays, cells were transfected with 100 nM siRNA (si-1) and incubated for 48 hrs prior to performing assay following manufacturers protocol (Oncogene Research Products).

[5] = system: H157 cells; assay: apoptosis assay, sub-2N DNA by flow cytometry; format: cell-based; conditions: serum deprivation; vector-transfected cells 3.1±0.1%
Experimental: as §2, §3

[6] = system: MDA-MB-231 cells; assay: apoptosis assay, sub-2N DNA by flow cytometry; format: cell-based; conditions: from 2.9+0.9 without PHLPP2
Experimental: as §2, §3

[7] = system: 293T cells; assay: G1/S ratio by flow cytometry, PHLPP2 expression; format: cell-based; conditions: high serum (10% FBS), 48 hrs
Experimental: as §3

[8] = system: H157 cells; assay: G1/S ratio by flow cytometry, PHLPP2 expression; format: cell-based; conditions: high serum (10% FBS), 48 hrs
Experimental: as §3

[9] = system: PKC, p90RSK, or p70S6K; assay: phosphorylation of the hydrophobic motif in other AGC family kinases on PHLPP2 expression (Western blot); format: cell-based; conditions: 293T and H157 cells
Experimental: as §1

[10] = system: MEK 1/2 or ERK 1/2; assay: MAPK signaling pathway on PHLPP2 expression (Western blot); format: cell-based; conditions: untreated cells
Experimental: as §1

T1 sequence (P31749 whole entry): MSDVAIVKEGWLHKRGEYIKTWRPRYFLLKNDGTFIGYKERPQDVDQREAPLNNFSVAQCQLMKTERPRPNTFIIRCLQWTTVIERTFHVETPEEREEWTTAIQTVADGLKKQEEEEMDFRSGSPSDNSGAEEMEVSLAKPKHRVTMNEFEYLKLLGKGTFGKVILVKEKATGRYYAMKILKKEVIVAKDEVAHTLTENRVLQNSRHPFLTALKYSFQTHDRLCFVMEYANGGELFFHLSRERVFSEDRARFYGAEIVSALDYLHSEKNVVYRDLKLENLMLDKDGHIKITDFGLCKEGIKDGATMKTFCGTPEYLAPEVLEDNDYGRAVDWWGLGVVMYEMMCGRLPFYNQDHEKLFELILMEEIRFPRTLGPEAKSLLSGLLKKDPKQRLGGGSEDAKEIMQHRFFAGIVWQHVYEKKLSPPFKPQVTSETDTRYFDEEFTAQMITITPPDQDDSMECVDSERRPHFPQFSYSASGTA

B1: HA-PHLPP2: HA-tagged full length human PHLPP2 expressed from pcDNA3HA vector; PHLPP2 protein is SEQ ID NO: 4 (protein, listed as Homo sapiens)
chain: MKRNGSRNCLNRRSRFGSRERDWLREDVKRGCVYLYGADTTTATTTTTTSSSSSSSSSSSDLHLVLCTVETPASEICAGEGRESLYLQLHGDLVRRLEPTERPLQIVYDYLSRLGFDDPVRIQEEATNPDLGCMIRFYGEKPCHMDRLDRILLSGIYNVRKGKTQLHKWAERLVVLCGTCLIVSSVKDCQTGKMHILPLVGGKIEEVKRRQYSLAFSSAGAQAQTYHVSFETLAEYQRWQRQASKVVSQRISTVDLSCYSLEEVPEHLFYSQDITYLNLRHNFMQLERPGGLDTLYKFSQLKGLNLSHNKLGLFPILLCEISTLTELNLSCNGFHDLPSQIGNLLNLQTLCLDGNFLTTLPEELGNLQQLSSLGISFNNFSQIPEVYEKLTMLDRVVMAGNCLEVLNLGVLNRMNHIKHVDLRMNHLKTMVIENLEGNKHITHVDLRDNRLTDLDLSSLCSLEQLHCGRNQLRELTLSGFSLRTLYASSNRLTAVNVYPVPSLLTFLDLSRNLLECVPDWACEAKKIEVLDVSYNLLTEVPVRILSSLSLRKLMLGHNHVQNLPTLVEHIPLEVLDLQHNALTRLPDTLFSKALNLRYLNASANSLESLPSACTGEESLSMLQLLYLTNNLLTDQCIPVLVGHLHLRILHLANNQLQTFPASKLNKLEQLEELNLSGNKLKTIPTTIANCKRLHTLVAHSNNISIFPEILQLPQIQFVDLSCNDLTEILIPEALPATLQDLDLTGNTNLVLEHKTLDIFSHITTLKIDQKPLPTTDSTVTSTFWSHGLAEMAGQRNKLCVSALAMDSFAEGVGAVYGMFDGDRNEELPRLLQCTMADVLLEEVQQSTNDTVFMANTFLVSHRKLGMAGQKLGSSALLCYIRPDTADPASSFSLTVANVGTCQAVLCRGGKPVPLSKVFSLEQDPEEAQRVKDQKAIITEDNKVNGVTCCTRMLGCTYLYPWILPKPHISSTPLTIQDELLILGNKALWEHLSYTEAVNAVRHVQDPLAAAKKLCTLAQSYGCQDNVGAMVVYLNIGEEGCTCEMNGLTLPGPVGFASTTTIKDAPKPATPSSSSGIASEFSSEMSTSEVSSEVGSTASDEHNAGGLDTALLPRPERRCSLHPTPTSGLFQRQPSSATFSSNQSDNGLDSDDDQPVEGVITNGSKVEVEVDIHCCRGRDLENSPPLIESSPTLCSEEHARGSCFGIRRQNSVNSGMLLPMSKDRMELQKSPSTSCLYGKKLSNGSIVPLEDSLNLIEVATEVPKRKTGYFAAPTQMEPEDQFVVPHDLEEEVKEQMKQHQDSRLEPEPHEEDRTEPPEEFDTAL
modifications: HA tag
In the case of B1, the “dephosphorylation of Ser 473” value [1] is reported as 60+4%, the “effect on Thr 308 phosphorylation” value [1] is reported as “no significant effect” and the “decrease in phosphorylation at Ser 473” value ([2]; Bt-474 cell line) is reported as “approximately 80%”. For the same molecule, the “decrease in phosphorylation at Ser 473” value ([2]; MDA-MB-231 cell line) was roughly 70%, the “effects on the phosphorylation of Thr 308” value ([2]; overexpression in 293T and H157 cells) was “minimal effects” and the “reduction in phosphorylation at Ser 473” value ([2]; overexpression in 293T cells) was 76±3%. For the same molecule, the “reduction in phosphorylation at Ser 473” value ([2]; overexpression in H157 cells) was 72+8%, the “reduction in Ser 473 phosphorylation of immunoprecipitated Akt” value ([3]; 293T cells overexpressing PHLPP2, compared to vector-transfected cells) was 70% and the “reduction in substrate phosphorylation (GSK-3 fusion protein)” value ([3]; Akt from 293T cells overexpressing PHLPP2) was 80%. The “apoptosis (sub-2N-DNA content)” value [4] was 15.8+0.6 relative units, the “relative sub-2N DNA (apoptosis)” value [5] was 28±5% and the “apoptosis (sub-2N-DNA content)” value [6] was 11.5+3.6 relative units. The “increase in the G1/S ratio” value [7] was “approximately 3 fold”, the “increase in the G1/S ratio” value [8] was “approximately 2 fold” and the “effect on the phosphorylation of the hydrophobic motif in PKC, p90RSK, or p70S6K” value [9] was “no significant effect”. The “phosphorylation of MEK 1/2 or ERK 1/2” value [10] was “did not alter”.
